Measurements from patent publication US10869932B2, “Compositions and methods for modifying the surface of cells and methods of use” (UNIVERSITY OF UTAH RESEARCH FOUNDATION, priority 2014, dated 2020).

Biological target: SDF-1 (Homo sapiens, UniProt P48061)
Assay: SDF-1 binding to rCXCR4 on the surface of MSCs
Assay type: cell-based
Settings: FITC-SDF-1, 30 minutes at 4° C.
Protocol: FITC-labeled rSDF-1 (FITC-SDF-1) and rhodamine-labeled rCXCR4 (Rho-CXCR4) were prepared according to the manufacturer's protocol. MSCs were then modified with DMPE-PEG-Rho-CXCR4 or DMPE-PEG-CXCR4. Modified MSCs and non-modified MSCs were incubated with FITC-SDF-1 for 30 minutes of incubation at 4° C. under gentle shaking. […] In order to avoid unknown effects of rhodamine on the interaction between SDF-1 and CXCR4, FITC-SDF-1 was added to MSCs modified with DMPE-PEG-CXCR4. […] Weak SDF-1 intensity was detected on the surface of the non-modified MSCs (see FIG. 12; Control+FITC-SDF-1).
Additional evidence of SDF-1 binding to CXCR4 with CXCR4 detection on the surface of the MSC was achieved by the same methods as employed in the previous experiment. MSCs were modified with DMPE-PEG-CXCR4 and the modified MSCs were incubated with FITC-SDF-1.

SDF-1, sequence (P48061 22-93, species assumed): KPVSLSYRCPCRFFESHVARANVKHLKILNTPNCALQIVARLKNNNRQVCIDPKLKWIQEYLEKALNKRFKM

SDF-1 binding on the surface of modified MSCs (confocal): FITC-SDF-1 was co-localized with CXCR4
Substance: DMPE-PEG-Rho-CXCR4: DMPE-PEG conjugated with rhodamine-labeled rCXCR4
